Target: TAX peptide, a peptide of the human T-cell leukemia virus type I peptide on HLA-A2 (human)
Assay: data from Cole et al. (2013); the method is not told in this article; the reference is the unmutated A6-TCR

Substance: A6-TCR with mutated CDR3 beta loop (PDB 4FTV)
- fold enhancement of binding over the parent A6-TCR: 1000 fold

From publication PMC10759225
